Assay results published in US20110212075A1, “SCREENING METHOD FOR POLYMORPHIC MARKERS IN HTRA1 GENE IN NEURODEGENERATIVE DISORDERS” (SIEMENS AKTIENGESELLSCHAFT, priority 2007, published 2011).

What was measured:
[1] = target: T1, HtrA1 composed of protease and PDZ domain (Homo sapiens, UniProt Q92743); experiment: Binding of peptide to HtrA1 by Isothermal Titration calorimetry
T1 construct: HtrA1 composed of protease and PDZ domain
Text: (§1) HtrA1 interacts with presenilin 1 (PS1). This was evident from data obtained from copurification, comigration during size exclusion chromatography and two hybrid analyses. […] Such a peptide could be used as a basis to synthesise a potent HtrA1 activator that could be of therapeutic relevance. […] This peptide did however not bind to HtrA1 composed of protease and PDZ domain as shown by Isothermal Titration calorimetry. Only after adding […] residues, the peptide did bind to HtrA1.

[2] = target: T2, HtrA1 (Homo sapiens, UniProt Q92743); experiment: HtrA1 activation by peptides (degradation of wt-tau, SDS/PAGE); format: biochemical; settings: peptide 200 μM in DMSO, HtrA1 (0.04 μg) preincubated 10 minutes at 37° C., wt-tau (2 μg) 10 minutes at 37° C., Coomassie gel, FIG. 18
T2 construct: made in house; host or cells: Escherichia coli BL21 D3+
Experimental: Purified wt-tau (2 μg) was incubated with HtrA1 (0.04 μg) for 10 minutes at 37° C. HtrA1 was preincubated with different peptides for 10 minutes at 37° C. All peptides were dissolved in DMSO and added to a final concentration of 200 μM. Wt-tau was incubated with DQLAFHQFYI (lane 1), KKKDSRIWWV (lane 2) and with HtrA1 and DMSO as a control (lane 3). Samples were loaded on a SDS/PAGE. The gel was stained with Coomassie Blue.
as §1

[3] = target: PDZ domain of HtrA1 (Homo sapiens, UniProt Q92743); settings: Runyon et al. Protein Sci. 16:2454-71 (2007); cited from earlier work
Sequence of PDZ domain of HtrA1 (Q92743 365-467 limits assumed): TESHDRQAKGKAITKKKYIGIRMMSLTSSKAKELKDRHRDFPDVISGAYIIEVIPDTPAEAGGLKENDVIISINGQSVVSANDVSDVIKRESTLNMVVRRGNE

T2 sequence (Q92743 158-480 limits assumed): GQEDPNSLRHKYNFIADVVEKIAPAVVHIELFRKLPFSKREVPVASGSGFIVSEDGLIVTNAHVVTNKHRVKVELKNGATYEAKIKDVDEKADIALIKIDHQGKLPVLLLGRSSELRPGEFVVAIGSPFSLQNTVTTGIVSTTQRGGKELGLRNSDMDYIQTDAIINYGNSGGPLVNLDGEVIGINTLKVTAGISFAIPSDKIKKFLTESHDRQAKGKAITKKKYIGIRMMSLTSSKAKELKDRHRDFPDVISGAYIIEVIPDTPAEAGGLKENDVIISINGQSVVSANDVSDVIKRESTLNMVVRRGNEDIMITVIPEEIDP
T1 sequence (Q92743 158-480 limits assumed): as above

Row | binding to HtrA1 [1] | activation of HtrA1 as shown by a more efficient degradation of tau [2] | Substance | binding to the PDZ domain of HtrA1 [3]
1 | did bind | weaker activator | KKKDSRIWWV [second peptide, DSRIWWV with 3 added N-terminal residues] | –
2 | – | activate HtrA1 | DQLAFHQFYI [peptide comprised of the 10 C-terminal residues of PS1 (presenilin 1)] | –
3 | not bind | – | DSRIWWV [reference compound] | excellent binding
